Reference: patent publication US20090042785A1 (Pieris, published 2009)

How the values were obtained:
[1] = molecular target: T1, human CTLA-4-Fc (Chimerigen) (human, UniProt P16410 36-161; P01857 99-330 = IgG part, limits assumed); assay: SPR-Affinity of the monomer towards hCTLA-4-Fc
T1 construct: extracellular domain;domain: Fc portion; Bought protein; also called hCTLA-4-Fc; huCTLA-4-Ig

mCTLA-4-Fc (R&D Systems) = mCTLA-4-Fc (R&D Systems) (mouse, UniProt P09793 36-162); assay: SPR, Fc fusion captured via anti-human IgG Fc
mCTLA-4-Fc (R&D Systems), sequence (P09793 whole entry, the tested form may be a part): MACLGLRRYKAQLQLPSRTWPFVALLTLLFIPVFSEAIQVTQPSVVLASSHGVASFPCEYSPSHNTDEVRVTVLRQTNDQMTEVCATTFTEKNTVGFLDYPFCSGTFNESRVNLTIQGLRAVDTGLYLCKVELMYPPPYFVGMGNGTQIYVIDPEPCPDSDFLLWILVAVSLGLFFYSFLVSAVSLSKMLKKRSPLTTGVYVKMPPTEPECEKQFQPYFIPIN

[2] = molecular target: T1, human CTLA-4-Fc (Chimerigen); assay: SPR, Fc fusion captured via anti-human IgG Fc

T1 sequence (P16410 other isoform, or with tags, fused parts or gaps mutant limits assumed): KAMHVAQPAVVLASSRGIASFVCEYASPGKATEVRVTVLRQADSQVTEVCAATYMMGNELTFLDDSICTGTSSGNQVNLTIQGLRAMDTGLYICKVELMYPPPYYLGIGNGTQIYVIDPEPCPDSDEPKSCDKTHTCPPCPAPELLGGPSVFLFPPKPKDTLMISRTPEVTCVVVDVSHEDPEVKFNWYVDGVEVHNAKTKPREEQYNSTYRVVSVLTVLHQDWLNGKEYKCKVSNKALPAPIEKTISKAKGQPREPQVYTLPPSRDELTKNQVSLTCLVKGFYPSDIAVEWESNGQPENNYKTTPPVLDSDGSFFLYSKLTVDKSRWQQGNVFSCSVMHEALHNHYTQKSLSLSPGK

B1: S140.4-O10 with a free cystein residue at position 87 (designed binder)
chain: QDSTSDLIPAPPLSKVPLQQNFQDNQFHGKWYVVGLAGNRILRDDQHPMNMYATIYELKEDKSYNVTSVISSHKKCEYTIATFVPGCQPGEFTLGNIKSYGDKTSYLVRVVSTDYNQYAVVFFKLAEDNAEFFAITIYGRTKELASELKENFIRFSKSLGLPENHIVFPVPIDQCIDGSAWSHPQFEK
notes: Not PEGylated; also called O10_S87C; S87C variant
[1]
  Kd: 6 nM

B2: hNGAL mutein S67.2-F03 (designed binder)
chain: QDSTSDLIPAPPLSKVPLQQNFQDNQFHGKWYVVGLAGNRILRDDQHPMNMYATIYELKEDKSYNVTSVIFPHKKCEYTIATFVPGSQPGEFTLGNIKSYGDKTSYLVRVVSTNYNQHAMVFFKLVEDNAEFFAITIYGRTKELASELKENFIRFSKSLGLPENHIVFPVPIDQCIDGSAWSHPQF
mCTLA-4-Fc (R&D Systems)
  Kd: 198 nM
  koff: 0.00089 s⁻¹
  kon: 4500 M⁻¹ s⁻¹
[2]
  Kd: 47.1 nM
  koff: 0.00033 s⁻¹
  kon: 7030 M⁻¹ s⁻¹

B3: hNGAL mutein S106.3-K20 (designed binder)
chain: QDSTSDLIPAPPLSKVPLQQNFQDNQFHGKWYVVGLAGNRILRDDQHPMNMYATIYELKEDKSYNVTSVIFPHKKCEYTIATFVPGSQPGEFTLGNIKSYGDKTSYLVRVVSTNYNQHAVVFFQLVEDNAGFFAITIYGRTKELASELKENFIRFSKSLGLPENHIVFPVPIDQCIDGSAWSHPQF
mCTLA-4-Fc (R&D Systems)
  Kd: 300 nM
[2]
  Kd: 29 nM

B4: hNGAL mutein S109.5-L04 (designed binder)
chain: QDSTSDLIPAPPLSKVPLQQNFQDNQFHGKWYVVGLAGNRILRDDRHPMNMYATIYELKEDKSYNVTSVIFPHKKCEYTIATFVPGSQPGEFTLGNIKSYGDKTSYLVRVVSTNYNQHATVFFKLAEDNAEFFAITIYGRTKELASELKENFIRFSKSLGLPENHIVFPVPIDQCIDGSAWSHPQF
mCTLA-4-Fc (R&D Systems)
  Kd: 42 nM
[2]
  Kd: 29 nM

B5: hNGAL mutein S106.3-O19 (designed binder)
chain: QDSTSDLIPAPPLSKVPLQQNFQDNQFHGKWYVVGLAGNRILRDDQHPMNMYATIYELKEDKSYNVTSVIFPHKKCEHTIATFVPGSQPGEFTLGNIKSYGDKTSYLVRVVSTDYNQHAMVFFELVEDNAGFFAITIYGRTKELASELKENFIRFSKSLGLPENHIVFPVPIDQCIDGSAWSHPQF
mCTLA-4-Fc (R&D Systems)
  Kd: 135 nM
[2]
  Kd: 22 nM

B6: hNGAL mutein S109.6-J11 (designed binder)
chain: QDSTSDLIPAPPLSKVPLQQNFQDNQFHGKWYVVGLAGNRILRDDQHPMNMYATIYELKEDKSYNVTSVIFPHKKCEYTFATFVPGSQPGEFTLGNIKSYGDKTSYLVRVVSTNYNQHATVFFKLAEDNAEFFAVTIYGRTKELASELKENFIRFSKSLGLPENHIVFPVPIDQCIDGSAWSHPQF
mCTLA-4-Fc (R&D Systems)
  Kd: 47 nM
[2]
  Kd: 20 nM

B7: hNGAL mutein S107.4-C16 (designed binder)
chain: QDSTSDLIPAPPLSKVPLQQNFQDNQFHGKWYVVGLAGNRILRDDQHPMNMYATIYELKEDKSYNVTSVIFPHKKCEYTIATFVPGSQPGEFTLGNIKSYGDKTSYLVRVVSTNYNQHAMVFFELVEDNAGFFAITIYGRTKELASELKENFIRFSKSLGLPENHIVFPVPIDQCIDGSAWSHPQF
mCTLA-4-Fc (R&D Systems)
  Kd: 275 nM
[2]
  Kd: 28 nM

B8: hNGAL mutein S94.2-F05 (designed binder)
chain: QDSTSDLIPAPPLSKVPLQQNFQDNQFHGKWYVVGLAGNRILRDDQHPMNMYATIYELKEDKSYNVTSVIFPHKKCEYTIATFVPGSQPGEFTLGNIKSYGDKTSYLVRVVSTNYNQYAMVFFKLAEDNAEFFAVTIYGRTKELASELKENFIRFSKSLGLPENHIVFPVPIDQCIDGSAWSHPQF
mCTLA-4-Fc (R&D Systems)
  Kd: 65 nM
[2]
  Kd: 18 nM

B9: hNGAL mutein S109.5-L23 (designed binder)
chain: QDSTSDLIPAPPLSKVPLQQNFQDNQFHGKWYVVGLAGNRILRDDQHPMNMYATIYELKEDKSYDVTSVIFPHKKCEYTTATFVPGSQPGEFTLGNIKSYGGKTSYLVRVVSTNYNQHATVFFKLAGDNAEFFAITIYGRTKELASELKENFIRFSKSLGLPENHIVFPVPIDQCIDGSAWSHPQF
mCTLA-4-Fc (R&D Systems)
  Kd: 19 nM

B10: hNGAL mutein S106.1-N15 (designed binder)
chain: QDSTSDLIPAPPLSKVPLQQNFQDNQFHGKWYVLGLAGNRILRDDQHPMNMYATIYELKEDKSYNVTSVIFPHKKCEYTIATFVPGSQPGEFTLGNIKSYGDKTSYLVRVVSTNYNQHAMVFFKLAEDNAEFFAITIYGRTKELASELKENFIRFSKSLGLPENHIVFPVPIDQCIDGSAWSHPQF
mCTLA-4-Fc (R&D Systems)
  Kd: 110 nM
[2]
  Kd: 43 nM

B11: hNGAL mutein S109.4-A15 (designed binder)
chain: QDSTSDLIPAPPLSKVPLQQNFQDNQFHGKWYVVGLAGNRILRDDQHPMDMYATIYELKEDKSYNVTSVIFPHKKCEYTIATFVPGSQPGEFTLGNIKSYGDKTSYLVRVVSTNYNQHATVFFKLAEDNAEFFAITIYGRTKELASELKENFIRFSKSLGLPENHIVFPVPIDQCIDGSAWSHPQF
[2]
  Kd: 26 nM

B12: S140.4-O10_A145C (designed binder)
chain: QDSTSDLIPAPPLSKVPLQQNFQDNQFHGKWYVVGLAGNRILRDDQHPMNMYATIYELKEDKSYNVTSVISSHKKCEYTIATFVPGSQPGEFTLGNIKSYGDKTSYLVRVVSTDYNQYAVVFFKLAEDNAEFFAITIYGRTKELCSELKENFIRFSKSLGLPENHIVFPVPIDQCIDG
notes: Produced from phNGAL15 without the T7 tag
[1]
  Kd: 6 nM

B13: S140.4-O10_N21C (designed binder)
chain: QDSTSDLIPAPPLSKVPLQQCFQDNQFHGKWYVVGLAGNRILRDDQHPMNMYATIYELKEDKSYNVTSVISSHKKCEYTIATFVPGSQPGEFTLGNIKSYGDKTSYLVRVVSTDYNQYAVVFFKLAEDNAEFFAITIYGRTKELASELKENFIRFSKSLGLPENHIVFPVPIDQCIDG
notes: as for B12
[1]
  Kd: 32 nM

B14: S140.4-O10_Q88C (designed binder)
chain: QDSTSDLIPAPPLSKVPLQQNFQDNQFHGKWYVVGLAGNRILRDDQHPMNMYATIYELKEDKSYNVTSVISSHKKCEYTIATFVPGSCPGEFTLGNIKSYGDKTSYLVRVVSTDYNQYAVVFFKLAEDNAEFFAITIYGRTKELASELKENFIRFSKSLGLPENHIVFPVPIDQCIDG
notes: as for B12
[1]
  Kd: 15 nM

B15: S140.4-O10_S146C (designed binder)
chain: QDSTSDLIPAPPLSKVPLQQNFQDNQFHGKWYVVGLAGNRILRDDQHPMNMYATIYELKEDKSYNVTSVISSHKKCEYTIATFVPGSQPGEFTLGNIKSYGDKTSYLVRVVSTDYNQYAVVFFKLAEDNAEFFAITIYGRTKELACELKENFIRFSKSLGLPENHIVFPVPIDQCIDG
notes: as for B12
[1]
  Kd: 9 nM

B16: S140.4-O10_S14C (designed binder)
chain: QDSTSDLIPAPPLCKVPLQQNFQDNQFHGKWYVVGLAGNRILRDDQHPMNMYATIYELKEDKSYNVTSVISSHKKCEYTIATFVPGSQPGEFTLGNIKSYGDKTSYLVRVVSTDYNQYAVVFFKLAEDNAEFFAITIYGRTKELASELKENFIRFSKSLGLPENHIVFPVPIDQCIDG
notes: as for B12
[1]
  Kd: 13 nM

B17: S140.4-O10_T141C (designed binder)
chain: QDSTSDLIPAPPLSKVPLQQNFQDNQFHGKWYVVGLAGNRILRDDQHPMNMYATIYELKEDKSYNVTSVISSHKKCEYTIATFVPGSQPGEFTLGNIKSYGDKTSYLVRVVSTDYNQYAVVFFKLAEDNAEFFAITIYGRCKELASELKENFIRFSKSLGLPENHIVFPVPIDQCIDG
notes: as for B12
[1]
  Kd: 4 nM

B18: S140.4-O10_E60C (designed binder)
chain: QDSTSDLIPAPPLSKVPLQQNFQDNQFHGKWYVVGLAGNRILRDDQHPMNMYATIYELKCDKSYNVTSVISSHKKCEYTIATFVPGSQPGEFTLGNIKSYGDKTSYLVRVVSTDYNQYAVVFFKLAEDNAEFFAITIYGRTKELASELKENFIRFSKSLGLPENHIVFPVPIDQCIDG
notes: as for B12
[1]
  Kd: 24 nM

B19: S140.4-O10_E143C (designed binder)
chain: QDSTSDLIPAPPLSKVPLQQNFQDNQFHGKWYVVGLAGNRILRDDQHPMNMYATIYELKEDKSYNVTSVISSHKKCEYTIATFVPGSQPGEFTLGNIKSYGDKTSYLVRVVSTDYNQYAVVFFKLAEDNAEFFAITIYGRTKCLASELKENFIRFSKSLGLPENHIVFPVPIDQCIDG
notes: as for B12
[1]
  Kd: 15 nM

B20: S140.4-O10_N116 (designed binder)
chain: QDSTSDLIPAPPLSKVPLQQNFQDNQFHGKWYVVGLAGNRILRDDQHPMNMYATIYELKEDKSYNVTSVISSHKKCEYTIATFVPGSQPGEFTLGNIKSYGDKTSYLVRVVSTDYCQYAVVFFKLAEDNAEFFAITIYGRTKELASELKENFIRFSKSLGLPENHIVFPVPIDQCIDG
notes: Produced from phNGAL15 without the T7 tag; also called O10_N116C
[1]
  Kd: 10 nM

B21: S140.4-O10_V84C (designed binder)
chain: QDSTSDLIPAPPLSKVPLQQNFQDNQFHGKWYVVGLAGNRILRDDQHPMNMYATIYELKEDKSYNVTSVISSHKKCEYTIATFCPGSQPGEFTLGNIKSYGDKTSYLVRVVSTDYNQYAVVFFKLAEDNAEFFAITIYGRTKELASELKENFIRFSKSLGLPENHIVFPVPIDQCIDG
notes: as for B12
[1]
  Kd: 15 nM

B22: S140.4-O10_S158C (designed binder)
chain: QDSTSDLIPAPPLSKVPLQQNFQDNQFHGKWYVVGLAGNRILRDDQHPMNMYATIYELKEDKSYNVTSVISSHKKCEYTIATFVPGSQPGEFTLGNIKSYGDKTSYLVRVVSTDYNQYAVVFFKLAEDNAEFFAITIYGRTKELASELKENFIRFSKCLGLPENHIVFPVPIDQCIDG
notes: as for B12
[1]
  Kd: 13 nM

B23: hNGAL mutein S67.3-C21 (designed binder)
chain: QDSTSDLIPAPPLSKVPLQQNFQDNQFHGKWYVVGLAGNYIWRNDRYPMQMYATIYELKEDKSYNVTSVIFDTKKCEYPIATFVPGSQPGEFTLGNIKSYRMDTSYLVRVVSTNYNQHAMVFFKQVNHNTEHFAITIYGRTKELASELKENFIRFSKSLGLPENHIVFPVPIDQCIDGSAWSHPQF
mCTLA-4-Fc (R&D Systems)
  Kd: 6800 nM
  koff: 0.098 s⁻¹
  kon: 14500 M⁻¹ s⁻¹
[2]
  Kd: 20 nM
  koff: 0.00033 s⁻¹
  kon: 16000 M⁻¹ s⁻¹
